The source of these data is article PMC6834915.

For this test, the target named is CdiI^Kp342 immunity protein (untagged) (Klebsiella pneumoniae 342). The test can be described thus: crystal structure.

By stoichiometry N is commonly meant the number of molecules, sites or subunits per partner or assembly. As to “CdiI^Kp342 immunity protein (untagged) (natural protein)”, the stoichiometry N turned out to be 2.
